Experimental data reported in patent publication US20210364527A1 (QUANTUM SI, published 2021).
Primed or numbered codes have the meaning given here. Ends that are not written are not given here. FITC′ = not defined here

B2: FITC-labeled LA peptide LAKLDEESILKQK-FITC (peptide)
peptide: LAKLDEESILKQK-{FITC′}
B3: RA peptide RAKLDEESILKQK (XAKLDEESILKQK, X = R) (peptide)
peptide: RAKLDEESILKQK
notes: Biolayer interferometry single-point screen of UBR-box homologs
B5: FITC-labeled FA peptide FAKLDEESILKQK-FITC (peptide)
peptide: FAKLDEESILKQK-{FITC′}
B9: FITC-labeled YA peptide YAKLDEESILKQK-FITC (peptide)
peptide: YAKLDEESILKQK-{FITC′}
B12: FITC-labeled IA peptide IAKLDEESILKQK-FITC (peptide)
peptide: IAKLDEESILKQK-{FITC′}
B19: FITC-labeled WA peptide WAKLDEESILKQK-FITC (peptide)
peptide: WAKLDEESILKQK-{FITC′}

What was measured:
[1] = biological target: T1, RA peptide (N-terminal arginine, penultimate alanine; rest of sequence not given); assay: fluorescence polarization
T1 peptide: RAKLDEESILKQK-{FITC′}

[2] = biological target: T2, ClpS from Thermosynochoccus elongatus (teClpS) (Thermosynechococcus elongatus, UniProt Q8DJY3 6-94); assay: fluorescence polarization, FITC-peptide with ClpS:streptavidin complex, 23 C
T2 construct: Dye-labelled or streptavidin-complexed depending on the assay; also called Thermosynechococcus elongatus ClpS
T2 sequence: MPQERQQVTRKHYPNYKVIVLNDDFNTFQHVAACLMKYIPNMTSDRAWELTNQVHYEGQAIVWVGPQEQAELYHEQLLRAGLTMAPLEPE

[3] = biological target: T3, Mus musculus UBR-box domain (PS535) (Mus musculus, UniProt Q6WKZ8 98-168); assay: biolayer interferometry single-point screen, 30 C
T3 sequence: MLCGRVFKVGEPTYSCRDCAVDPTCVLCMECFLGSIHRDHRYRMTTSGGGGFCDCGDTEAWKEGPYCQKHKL

[4] = biological target: T4, Saccharomyces cerevisiae UBR-box domain (PS538) (Saccharomyces cerevisiae, UniProt P19812 113-194); assay: biolayer interferometry single-point screen, 30 C
T4 sequence: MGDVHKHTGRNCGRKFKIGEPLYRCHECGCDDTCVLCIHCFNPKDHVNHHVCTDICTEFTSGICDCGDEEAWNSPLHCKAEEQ

[5] = biological target: T5, Kluyveromyces lactis UBR-box domain (PS528) (Kluyveromyces lactis, UniProt O60014 101-182); assay: biolayer interferometry single-point screen, 30 C
T5 construct: UBR-streptavidin complex in fluorescence polarization
T5 sequence: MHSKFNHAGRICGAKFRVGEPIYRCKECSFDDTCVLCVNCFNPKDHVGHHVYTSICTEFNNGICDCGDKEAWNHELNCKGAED

[6] = biological target: T6, F peptide FAKLDEESILKQK (XAKLDEESILKQK, X = F); assay: BLI heatmap
T6 construct: Immobilized on the biolayer interferometry sensor
T6 peptide: FAKLDEESILKQK

[7] = biological target: T7, Y peptide YAKLDEESILKQK (XAKLDEESILKQK, X = Y); assay: BLI heatmap
T7 construct: Immobilized on the biolayer interferometry sensor
T7 peptide: YAKLDEESILKQK

[8] = biological target: T8, IA peptide IAKLDEESILKQK (XAKLDEESILKQK, X = I); assay: BLI heatmap
T8 construct: Immobilized on the biolayer interferometry sensor
T8 peptide: IAKLDEESILKQK

[9] = biological target: T9, W peptide WAKLDEESILKQK (XAKLDEESILKQK, X = W); assay: BLI heatmap
T9 construct: Immobilized on the biolayer interferometry sensor
T9 peptide: WAKLDEESILKQK

[10] = biological target: T10, LA peptide LAKLDEESILKQK (XAKLDEESILKQK, X = L); assay: BLI heatmap
T10 construct: Immobilized on the biolayer interferometry sensor
T10 peptide: LAKLDEESILKQK

[11] = biological target: T11, VA peptide VAKLDEESILKQK (XAKLDEESILKQK, X = V); assay: BLI heatmap
T11 construct: Immobilized on the biolayer interferometry sensor
T11 peptide: VAKLDEESILKQK

[12] = biological target: B9; assay: fluorescence polarization, single point
[13] = biological target: B5; assay: fluorescence polarization, single point
[14] = biological target: B12; assay: fluorescence polarization, single point
[15] = biological target: B2; assay: fluorescence polarization, single point
[16] = biological target: B19; assay: fluorescence polarization, single point
[17] = biological target: T2, ClpS from Thermosynochoccus elongatus …; assay: fluorescence polarization, single point
[18] = biological target: B3; assay: BLI heatmap, single-point screen

B1: PS695 (Bis-PS528, Linker 3) (designed binder)
chain: MHSKFNHAGRICGAKFRVGEPIYRCKECSFDDTCVLCVNCFNPKDHVGHHVYTSICTEFNNGICDCGDKEAWNHELNCKGAEDGSAGSAAGSGEFGSAGSAAGSGEFGSAGSAAGSGEFMHSKFNHAGRICGAKFRVGEPIYRCKECSFDDTCVLCVNCFNPKDHVGHHVYTSICTEFNNGICDCGDKEAWNHELNCKGAEDGGSHHHHHHHHHHGGGSGGGSGGGSGLNDFFEAQKIEWHEGGGSGGGSGGGSGLNDFFEAQKIEWHE
notes: Single polypeptide; the entry includes the C-terminal His/bis-biotinylation tag
Kd [1]: 317 nM

B2
binding result [2]: binds

B3
binding result [3]: binds
binding result [4]: binds
binding result [5]: binds

B4: PS373 (other)
chain: MNRIKQEAVRTENLLICSESIRRTPGTMSNEESMFDEVVAVAVAEPETQHDERRGTKPKRQPPYHVILWDDTDHSFDYVIMMMKRLFRMPIEKGFQVAKEVDSSGRAICMTTTLELAELKRDQIHAFGKDELLPRCKGSMSATIEPAEG
binding result [6]: no binding
binding result [7]: no binding
binding result [8]: no binding
binding result [9]: no binding
binding result [10]: no binding
binding result [11]: no binding

B5
binding result [2]: binds

B6: PS381 (other)
chain: MVAFSKKWKKDELDKSTGKQKMLILHNDSVNSFDYVIKTLCEVCDHDTIQAEQCAFLTHFKGQCEIAVGEVADLVPLKNKLLNKNLIVSIH
binding result [6]: no binding
binding result [7]: no binding
binding result [8]: no binding
binding result [9]: no binding
binding result [10]: no binding
binding result [11]: no binding

B7: PS693 (Bis-PS528, Linker 1) (designed binder)
chain: MHSKFNHAGRICGAKFRVGEPIYRCKECSFDDTCVLCVNCFNPKDHVGHHVYTSICTEFNNGICDCGDKEAWNHELNCKGAEDGGGSGGGSGGGSGMHSKFNHAGRICGAKFRVGEPIYRCKECSFDDTCVLCVNCFNPKDHVGHHVYTSICTEFNNGICDCGDKEAWNHELNCKGAEDGGSHHHHHHHHHHGGGSGGGSGGGSGLNDFFEAQKIEWHEGGGSGGGSGGGSGLNDFFEAQKIEWHE
notes: as for B1
Kd [1]: 263 nM

B8: KA peptide KAKLDEESILKQK (XAKLDEESILKQK, X = K) (peptide)
peptide: KAKLDEESILKQK
notes: as for B3
binding result [3]: binds
binding result [4]: binds
binding result [5]: binds

B9
binding result [2]: binds

B10: PS370 (other)
chain: MFNSLGTVLDPKKSKAKYPEARVIVLDDNFNTFQHVANCLLAIIPRMCEQRAWDLTIKVDKAGSAEVWRGNLEQAELYHEQLFSKGLTMAPIEKT
binding result [8]: no binding
binding result [11]: no binding
binding result [12]: binds
binding result [13]: binds
binding result [14]: no binding
binding result [15]: binds
binding result [16]: binds

B11: PS692 (Bis-PS621, Linker 3) (designed binder)
chain: MHSKFSHAGRICGAKFKVGEPIYRCKECSFDDTCVLCVNCFNPKDHTGHHVYTTICTEFNNGICDCGDKEAWNHTLFCKAEEGGSAGSAAGSGEFGSAGSAAGSGEFGSAGSAAGSGEFMHSKFSHAGRICGAKFKVGEPIYRCKECSFDDTCVLCVNCFNPKDHTGHHVYTTICTEFNNGICDCGDKEAWNHTLFCKAEEGGGSHHHHHHHHHHGGGSGGGSGGGSGLNDFFEAQKIEWHEGGGSGGGSGGGSGLNDFFEAQKIEWHE
notes: as for B1
Kd [1]: 478 nM

B12
binding result [17]: no binding

B13: PS691 (Bis-PS621, Linker 2) (designed binder)
chain: MHSKFSHAGRICGAKFKVGEPIYRCKECSFDDTCVLCVNCFNPKDHTGHHVYTTICTEFNNGICDCGDKEAWNHTLFCKAEEGGSAGSAAGSGEFMHSKFSHAGRICGAKFKVGEPIYRCKECSFDDTCVLCVNCFNPKDHTGHHVYTTICTEFNNGICDCGDKEAWNHTLFCKAEEGGGSHHHHHHHHHHGGGSGGGSGGGSGLNDFFEAQKIEWHEGGGSGGGSGGGSGLNDFFEAQKIEWHE
notes: as for B1
Kd [1]: 369 nM

B14: PS694 (Bis-PS528, Linker 2) (designed binder)
chain: MHSKFNHAGRICGAKFRVGEPIYRCKECSFDDTCVLCVNCFNPKDHVGHHVYTSICTEFNNGICDCGDKEAWNHELNCKGAEDGSAGSAAGSGEFMHSKFNHAGRICGAKFRVGEPIYRCKECSFDDTCVLCVNCFNPKDHVGHHVYTSICTEFNNGICDCGDKEAWNHELNCKGAEDGGSHHHHHHHHHHGGGSGGGSGGGSGLNDFFEAQKIEWHEGGGSGGGSGGGSGLNDFFEAQKIEWHE
notes: as for B1
Kd [1]: 353 nM

VAKLDEESILKQK-{FITC′} [FITC-labeled VA peptide VAKLDEESILKQK-FITC]
binding result [17]: no binding

B15: Brachionus plicatilis UBR-box domain (PS505) (other)
chain: MVCGRVFKSGEPSYFCRECGTDPTCVLCSICFRHSKHRYHKYVMMTSGGGGYCDCGDPEAWKSDPCCELHMP
binding result [18]: binds

B16: HA peptide HAKLDEESILKQK (XAKLDEESILKQK, X = H) (peptide)
peptide: HAKLDEESILKQK
notes: as for B3
binding result [5]: binds

B17: PS690 (Bis-PS621, Linker 1) (designed binder)
chain: MHSKFSHAGRICGAKFKVGEPIYRCKECSFDDTCVLCVNCFNPKDHTGHHVYTTICTEFNNGICDCGDKEAWNHTLFCKAEEGGGGSGGGSGGGSGMHSKFSHAGRICGAKFKVGEPIYRCKECSFDDTCVLCVNCFNPKDHTGHHVYTTICTEFNNGICDCGDKEAWNHTLFCKAEEGGGSHHHHHHHHHHGGGSGGGSGGGSGLNDFFEAQKIEWHEGGGSGGGSGGGSGLNDFFEAQKIEWHE
notes: as for B1
Kd [1]: 354 nM

B18: PS379 (other)
chain: MSTQEEVLEEVKTTTQKENEIVLYNDDYNTFDHVIETLIYACEHTPVQAEQCAILVHYKGKCTVKTGSFDELKPRCSKLLEEGLSAEIV
binding result [6]: no binding
binding result [7]: no binding
binding result [8]: no binding
binding result [9]: no binding
binding result [10]: no binding
binding result [11]: no binding

B19
binding result [2]: binds
